The record followed here is patent US20150118239A1 (GEORG AUGUST UNIVERSIT T G TTINGEN STIFTUNG FFENTLICHEN …, published 2015).

The target in one assay is T1, Aβ4-10 (human).
T1 construct: Screening peptide of the hybridoma ELISA
T1 peptide: FRHDSGY
The assay is described as follows: hybridoma screening ELISA.

The next assay addresses T2, Aβ36-40 (human).
T2 construct: Counter-screening peptide of the hybridoma ELISA
T2 peptide: VGGVV
The assay is described as follows: hybridoma screening ELISA.

Assay [1] addresses T3, Prion protein (PrP) deposits (human, UniProt P04156 23-230).
T3 construct: also called PrP immunopositive amyloid plaques, synaptic, plaque-like and perineuronal deposits
As to the kind of experiment: IHC, brain sections of non-AD neurodegenerative disorders.

Assay [2] deals with T4, Phospho-Tau aggregates (tufted astrocytes in PSP, Pick bodies in PiD) (human, UniProt P10636-8 2-441, limits assumed, phosphorylated, sites not stated).
T4 construct: Tissue aggregates in patients' brain sections; also called pTau
The assay is described as above.

For assay [3], the target named is T5, Phospho-TDP-43 neuronal cytoplasmic and neuritic deposits (human, UniProt Q13148 1-414, limits assumed, phosphorylated, sites not stated).
T5 construct: Tissue aggregates in patients' brain sections
The description is as above.

The target of assay [4] is α-Synuclein aggregates (Lewy bodies, Lewy neurites, glial cytoplasmic inclusions) (human, UniProt P37840 1-140). Described as above.
The target in assay [5] is Aβ4-38 (human). The assay is described as follows: cell-based or functional assay.
Assay [6] concerns the target Aβ4-40 (human). The assay is described as follows: cell-based or functional assay.
For a further assay, the target named is AβpE3-42 (human, N-terminal pyroglutamate at Aβ position 3 (pE3)). As to the kind of experiment: cell-based or functional assay.
The target in the next assay is Aβ4-42 (human). As to the kind of experiment: cell-based or functional assay.
The target of assay [7] is T6, Aβ4-42 low molecular weight (LMW) oligomers (human).
T6 construct: otherwise only LMW oligomers; also called Aβ4-42 oligomers
As to the kind of experiment: native Western blot, sensitivity test.

The target in assay [8] is T7, AβpE3-42 low molecular weight (LMW) oligomers (human, N-terminal pyroglutamate at Aβ position 3 (pE3)).
T7 construct: otherwise only LMW oligomers
As to the kind of experiment: native Western blot, sensitivity test.

The target in assay [9] is T8, Aβ4-38 (human).
T8 construct: Synthetic peptide
The assay is described as follows: native Western blot, equal amounts of freshly dissolved peptides.

Assay [10] has as its target T9, Aβ4-40 (human).
T9 construct: Synthetic peptide, the immunogen
The description is as above.

The next assay deals with T10, Aβ5-20 (human).
T10 construct: Pepscan 16-mer
T10 peptide: RHDSGYEVHHQKLVFF
As to the kind of experiment: pepscan ELISA.

The next assay concerns the target T11, Aβ2-17 (human).
T11 construct: Pepscan 16-mer
T11 peptide: AEFRHDSGYEVHHQKL
The assay is described as follows: pepscan ELISA, coated 16-mer peptides, antibody 7 µg/ml.

The next assay concerns the target T12, Aβ4-19 (human).
T12 construct: Pepscan 16-mer
T12 peptide: FRHDSGYEVHHQKLVF
The description is as above.

For the next assay, the target named is T13, Aβ3-18 (human).
T13 construct: Pepscan 16-mer
T13 peptide: EFRHDSGYEVHHQKLV
Described as above.

B1: NT4X-167 (antibody, V domains shown)
VH: QVQLKQSGPGLVQPSQSLSITCTVSGFSLTSYGIHWVRQSPGKGLEWLGVMWSGGITDFYAAFISRLSISRDISKSQVFFKMNSLQADDTAIYYCARGSRYALDYWGQGTSVSVSS
VL: DIQMTQTTSSLSASLGDRVTISCRASQDISNYLNWYQQKPDGTVKLLIYYTSRLHSGVPSRFSGSGSGTDYSLTISNLEQEDIATYFCQQGNTLPPTFGGGTKLEIK
notes: also called NT4X-67
On to B1, for which the binding result is listed as “binds” in the assay with Aβ4-10; “no binding” in the assay with Aβ36-40; “no binding” in [1]; “no binding” in assay [2]; “no binding” in assay [3]; “no binding” in assay [4]. Further, the “viability of SH-SY5Y cells (MTS), aged 10 µM peptide with against without antibody” value in the assay with Aβ4-38 [5] is under 0.01 p value; in the assay with Aβ4-40 [6], under 0.01 p value; with AβpE3-42, under 0.05 p value; with Aβ4-42, under 0.01 p value. Moreover, the “peptide amount giving similar signal intensity” value in [7] and in assay [8] was 70 ng throughout.

B2: NT4X-83 (antibody, V domains shown)
VH: EVHLQQSGAELVKPGASVKLSCTASGFNIRDTYIHWVKQRPEQGLEWIGRVDPANGNTKYDPKFQGKATITADTSSDTAYLQLSSLTAEDTAVYFCARRIYYGYALFAYWGQGTLVTVSA
VL: DIVMTQSPSSLTVTAGEKVTMSCKSSQSLLNSGNQKNYLTWYQQKPGQPPKLLIYWASTRESGVPDRFTGSGSGTDFTLTISSVQAEDLAVYYCQNDYSYPLTFGAGTKLELK
notes: also called Aβ4-40 NT4X-83; DSM ACC3161
Turning to B2, the binding result in the assay with Aβ4-38 [9] is reported as “binds”; with Aβ4-40 [10], “binds”; with Aβ5-20, “no binding (tested: 7 µg/ml)”; with Aβ4-10, “binds”; with Aβ36-40, “no binding”; in assay [1], “no binding”. Further, the binding result in [2] is “no binding”; in assay [3], “no binding”; in assay [4] it was “no binding”; in the assay with Aβ2-17, “binds”; in the assay with Aβ4-19, “binds”; in the assay with Aβ3-18, “binds”. Besides, the “peptide amount giving similar signal intensity” value in [7] and in assay [8] was 500 ng throughout.
